Assay results as given in PMC10089224 (2023).
Bridges are numbered along the chain shown (N, C = ends). Where no end group is shown, it is not given here. [ ]: non-standard residue; d: D form.

What was measured:
CPI1 [1] = target: T1, CPI1 (synthetic construct, thioether N-17); test: ATPase activity inhibition assay (NADH-coupled), no LTC4
T1 chain: {CH2CO}-[dY]FWGNLHWYYEQFDSTC

CPI1 [2] = target: T2, CPI1 (synthetic construct, thioether N-17); test: ATPase activity inhibition assay (NADH-coupled), with 3.5 µM LTC4
T2 chain: {CH2CO}-[dY]FWGNLHWYYEQFDSTC

Ki (CPI1 [1]): 0.07 µM
Ki (CPI1 [2]): 0.095 µM
B1: MRP1 (bMRP1) (protein)
chain: MALRDFCSVDGSDLFWEWNVTWNTSNPDFTKCFQNTVLVWVPCSYLWVCFPFYFLYLSHHDRGYIQMTHLNKAKTALGFLLWIVCWADLFYSFWERSMGKLLAPVFLVSPTLLGITMLLATFLIQIERRRGVQSSGIMLTFWLIALLCALAILRSKIMTALKEDARVDVFRDVTFYIYFSLVLIQLVLSCFSDRSPLFSETINDPNPCPESSASFLSRITFWWITGMMVQGYRQPLESTDLWSLNKEDTSEQVVPVLVKNWKKECAKSRKQPVKIVYSSKDPAKPKGSSKVDVNEEAEALIVKCPQKERDPSLFKVLYKTFGPYFLMSFLFKAVHDLMMFAGPEILKLLINFVNDKKAPEWQGYFYTALLFISACLQTLVLHQYFHICFVSGMRIKTAVIGAVYRKALVITNAARKSSTVGEIVNLMSVDAQRFMDLATYINMIWSAPLQVILALYLLWLNLGPSVLAGVAVMVLMVPLNAVMAMKTKTYQVAHMKSKDNRIKLMNEILNGIKVLKLYAWELAFKDKVLAIRQEELKVLKKSAYLAAVGTFTWVCTPFLVALSTFAVYVTVDENNILDAQKAFVSLALFNILRFPLNILPMVISSIVQASVSLKRLRVFLSHEDLDPDSIQRRPIKDAGATNSITVKNATFTWARNDPPTLHGITFSVPEGSLVAVVGQVGCGKSSLLSALLAEMDKVEGHVTVKGSVAYVPQQAWIQNISLRENILFGRQLQERYYKAVVEACALLPDLEILPSGDRTEIGEKGVNLSGGQKQRVSLARAVYCDSDVYLLDDPLSAVDAHVGKHIFENVIGPKGLLKNKTRLLVTHAISYLPQMDVIIVMSGGKISEMGSYQELLARDGAFAEFLRTYASAEQEQGQPEDGLAGVGGPGKEVKQMENGMLVTDTAGKQMQRQLSSSSSYSRDVSQHHTSTAELRKPGPTEETWKLVEADKAQTGQVKLSVYWDYMKAIGLFISFLSIFLFLCNHVASLVSNYWLSLWTDDPIVNGTQEHTQVRLSVYGALGISQGITVFGYSMAVSIGGIFASRRLHLDLLHNVLRSPISFFERTPSGNLVNRFSKELDTVDSMIPQVIKMFMGSLFNVIGACIIILLATPMAAVIIPPLGLIYFFVQRFYVASSRQLKRLESVSRSPVYSHFNETLLGVSVIRAFEEQERFIRQSDLKVDENQKAYYPSIVANRWLAVRLECVGNCIVLFASLFAVISRHSLSAGLVGLSVSYSLQVTTYLNWLVRMSSEMETNIVAVERLKEYSETEKEAPWQIQDMAPPKDWPQVGRVEFRDYGLRYREDLDLVLKHINVTIDGGEKVGIVGRTGAGKSSLTLGLFRIKESAEGEIIIDDINIAKIGLHDLRFKITIIPQDPVLFSGSLRMNLDPFSQYSDEEVWTSLELAHLKGFVSALPDKLNHECAEGGENLSVGQRQLVCLARALLRKTKILVLDEATAAVDLETDDLIQSTIRTQFDDCTVLTIAHRLNTIMDYTRVIVLDKGEIQEWGSPSDLLQQRGLFYSMAKDSGLV
